Test results reported in patent US20060068468A1 (ACCELERON PHARMA, published 2006).
Where a chain is given by its changes, count along the chain named.

T1: Activin A (UniProt P08476 311-426)
T1 construct: also called ActA
T1 sequence (looked up): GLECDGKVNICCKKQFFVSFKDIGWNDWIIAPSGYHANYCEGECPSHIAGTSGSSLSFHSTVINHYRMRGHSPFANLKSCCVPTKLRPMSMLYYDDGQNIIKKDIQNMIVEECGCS

T2: GDF-11 (UniProt O95390 299-407)
T2 construct: also called Growth and Differentiation Factor-11; BMP11
T2 sequence (looked up): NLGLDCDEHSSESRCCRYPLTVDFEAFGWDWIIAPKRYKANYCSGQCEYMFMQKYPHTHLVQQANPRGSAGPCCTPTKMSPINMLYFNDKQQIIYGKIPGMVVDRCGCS

B1: ActRIIB-Fc K74I (Fc fusion)
chain: SGRGEAETRECIYYNANWELERTNQSGLERCEGEQDKRLHCYASWANSSGTIELVIKGCWLDDFNCYDRQECVATEENPQVYFCCCEGNFCNERFTHLPEAGGGTHTCPPCPAPELLGGPSVFLFPPKPKDTLMISRTPEVTCVVVDVSHEDPEVKFNWYVDGVEVHNAKTKPREEQYNSTYRVVSVLTVLHQDWLNGKEYKCKVSNKALPVPIEKTISKAKGQPREPQVYTLPPSREEMTKNQVSLTCLVKGFYPSDIAVEWESNGQPENNYKTTPPVLDSDGSFFLYSKLTVDKSRWQQGNVFSCSVMHEALHNHYTQKSLSLSPGK
notes: Mutation in the background ActRIIB-Fc
B2: ActRIIB-Fc K74Y (Fc fusion)
chain: B1 chain with I56Y
notes: as for B1
B3: ActRIIB-Fc K74F (Fc fusion)
chain: B1 chain with I56F
notes: as for B1
B4: ActRIIB-Fc L79A (Fc fusion)
chain: B1 chain with I56K, L61A
notes: as for B1
B5: ActRIIB-Fc D54A (Fc fusion)
chain: B1 chain with D36A, I56K
notes: as for B1
B6: ActRIIB-Fc +15tail (Fc fusion)
chain: SGRGEAETRECIYYNANWELERTNQSGLERCEGEQDKRLHCYASWANSSGTIELVKKGCWLDDFNCYDRQECVATEENPQVYFCCCEGNFCNERFTHLPEAGGPEVTYEPPPTAPTGGGTHTCPPCPAPELLGGPSVFLFPPKPKDTLMISRTPEVTCVVVDVSHEDPEVKFNWYVDGVEVHNAKTKPREEQYNSTYRVVSVLTVLHQDWLNGKEYKCKVSNKALPVPIEKTISKAKGQPREPQVYTLPPSREEMTKNQVSLTCLVKGFYPSDIAVEWESNGQPENNYKTTPPVLDSDGSFFLYSKLTVDKSRWQQGNVFSCSVMHEALHNHYTQKSLSLSPGK
notes: also called ActRIIB-Fc with the C-terminal 15 amino acids of the extracellular domain
B7: background ActRIIB-Fc fusion, WT (64A) (Fc fusion)
chain: B1 chain with I56K
notes: Made in HEK293T or CHO cells and purified on protein A; also called wild-type (background A64) ActRIIB-Fc; background A64 construct
B8: ActRIIB-Fc R40A (Fc fusion)
chain: B1 chain with R22A, I56K
notes: as for B1
B9: ActRIIB-Fc K74A (Fc fusion)
chain: B1 chain with I56A
notes: as for B1

target: T1, Activin A; assay: BiaCore, ligand immobilized on CM5 chip
Method: (§1) GDF-11 or Activin A (“ActA”) were immobilized on a BiaCore CM5 chip using standard amine coupling procedure. The ActRIIB-Fc mutant or wild-type protein was loaded onto the system, and binding was measured.

Row | binding result | Binder
1 | no binding | B1
2 | no binding | B2
3 | no binding | B3

target: T2, GDF-11; assay: BiaCore, ligand immobilized on CM5 chip
Method: as §1

Row | binding result | Binder
4 | no binding | B4
5 | no binding | B5

target: T1, Activin A; assay: BiaCore (SPR); ligand amine-coupled to CM5 chip, ActRIIB-Fc injected
Method: as §1

Row | Kd [µM] | binding result | Binder
6 | ~0.026 | – | B6
7 | 0.18 | – | B7
8 | – | binds | B8
9 | 0.00435 | – | B9
10 | – | binds | B4
11 | – | binds | B5

target: T2, GDF-11; assay: as above
Method: as §1

Row | Kd [µM] | binding result | Binder
12 | 0.019 | – | B6
13 | 0.26 | – | B7
14 | – | binds | B1
15 | – | binds | B2
16 | – | binds | B8
17 | 0.0053 | – | B9
18 | – | binds | B3
